For orientation: Kd means the concentration at which binding is half-saturated.

Test [1] addresses T1, cynomolgus monkey FcγRIIIaS extracellular domain, C-terminal His-tag (cynomolgus monkey, UniProt A3RFZ7 21-206 (rhesus entry)).
T1 construct: also called cyno FcγRIIIaS; cynoFcγRIIIaS; not shown: His-tag added to C-terminus
Briefly: SPR (Biacore), KD of SG1 / KD of variant.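 Also: relative to parent M103205H795-SG1 carrying the SG1 human heavy chain constant region.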

Test [2] concerns the target T2, cynomolgus monkey FcγRIIa1 extracellular domain, C-terminal His-tag (cynomolgus monkey).
T2 construct: also called cyno FcγRIIa1; cynoFcgRIIa1; not shown: His-tag added to C-terminus
T2 chain: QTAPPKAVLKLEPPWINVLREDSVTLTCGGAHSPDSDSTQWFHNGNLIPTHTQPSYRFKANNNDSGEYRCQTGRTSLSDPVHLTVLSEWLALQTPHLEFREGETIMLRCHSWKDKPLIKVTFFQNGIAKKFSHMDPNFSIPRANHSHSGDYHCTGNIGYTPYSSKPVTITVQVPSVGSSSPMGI
Briefly: SPR (Biacore), antibody captured, FcgR analyte, 25 C. For orientation: In SPR one partner is held on a chip, and binding of the other changes the refractive index at the surface.

The target in test [3] is T3, cynomolgus monkey FcγRIIa3 extracellular domain, C-terminal His-tag (cynomolgus monkey).
T3 construct: also called cyno FcγRIIa3; cynoFcgRIIa3; not shown: His-tag added to C-terminus
T3 chain: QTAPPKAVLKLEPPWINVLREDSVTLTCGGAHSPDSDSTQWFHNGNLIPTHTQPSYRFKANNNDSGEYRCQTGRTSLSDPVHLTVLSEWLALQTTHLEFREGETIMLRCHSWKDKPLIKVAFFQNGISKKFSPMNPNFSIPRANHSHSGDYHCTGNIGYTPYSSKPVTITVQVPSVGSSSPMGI
The description is as above.

The target of test [4] is T4, cynomolgus monkey FcγRIIb extracellular domain, C-terminal His-tag (cynomolgus monkey).
T4 construct: also called cyno FcγRIIb; cynoFcγRIIb; not shown: His-tag added to C-terminus
T4 chain: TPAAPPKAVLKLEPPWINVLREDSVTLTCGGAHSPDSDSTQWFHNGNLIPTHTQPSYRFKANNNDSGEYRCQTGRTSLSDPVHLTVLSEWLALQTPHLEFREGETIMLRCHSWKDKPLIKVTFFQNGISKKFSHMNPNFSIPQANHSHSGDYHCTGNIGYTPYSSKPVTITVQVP
Described as above.

In test [5] the target is T1, cynomolgus monkey FcγRIIIaS …. The description is as above.
Test [6] deals with T5, human FcγRIIaH extracellular domain, C-terminal His-tag (human, UniProt P12318 34-217).
T5 construct: also called human FcγRIIa (type H); FcgRIIaH; not shown: His-tag added to C-terminus
T5 sequence: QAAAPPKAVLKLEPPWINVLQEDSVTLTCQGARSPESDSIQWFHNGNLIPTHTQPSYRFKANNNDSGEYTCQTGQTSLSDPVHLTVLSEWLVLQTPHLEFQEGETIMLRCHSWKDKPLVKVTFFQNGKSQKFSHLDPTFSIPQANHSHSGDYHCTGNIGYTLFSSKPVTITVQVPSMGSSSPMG
The description is as above.

The target of test [7] is T6, human FcγRIIaR extracellular domain, C-terminal His-tag (human, UniProt P12318 34-217).
T6 construct: also called human FcγRIIa (type R); FcgRIIaR; not shown: His-tag added to C-terminus
T6 chain: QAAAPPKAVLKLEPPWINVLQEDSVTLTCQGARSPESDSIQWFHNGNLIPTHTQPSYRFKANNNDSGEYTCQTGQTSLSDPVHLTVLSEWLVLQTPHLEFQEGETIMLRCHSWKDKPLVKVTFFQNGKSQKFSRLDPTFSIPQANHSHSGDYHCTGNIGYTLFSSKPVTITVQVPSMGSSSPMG
Described as above.

Test [8] deals with T7, human FcγRIIb extracellular domain, C-terminal His-tag (human, UniProt P31994 43-217).
T7 construct: also called FcgRIIb (human); not shown: His-tag added to C-terminus
T7 sequence: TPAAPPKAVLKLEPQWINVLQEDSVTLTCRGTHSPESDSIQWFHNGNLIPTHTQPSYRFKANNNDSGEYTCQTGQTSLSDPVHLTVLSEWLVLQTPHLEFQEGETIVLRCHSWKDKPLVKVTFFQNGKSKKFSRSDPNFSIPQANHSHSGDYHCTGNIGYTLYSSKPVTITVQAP
Described as above.

Test [9] addresses T8, human FcγRIIIaV extracellular domain, C-terminal His-tag (human, UniProt P08637 17-208).
T8 construct: also called FcgRIIIaV; not shown: His-tag added to C-terminus
Described as above.

T1 sequence (A3RFZ7 21-206): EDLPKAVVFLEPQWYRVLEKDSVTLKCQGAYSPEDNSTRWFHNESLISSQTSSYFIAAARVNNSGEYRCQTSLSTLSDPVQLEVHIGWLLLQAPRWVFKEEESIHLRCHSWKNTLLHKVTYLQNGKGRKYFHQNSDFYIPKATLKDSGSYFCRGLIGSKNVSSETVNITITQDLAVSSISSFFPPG
T8 sequence (P08637 17-208 F176V): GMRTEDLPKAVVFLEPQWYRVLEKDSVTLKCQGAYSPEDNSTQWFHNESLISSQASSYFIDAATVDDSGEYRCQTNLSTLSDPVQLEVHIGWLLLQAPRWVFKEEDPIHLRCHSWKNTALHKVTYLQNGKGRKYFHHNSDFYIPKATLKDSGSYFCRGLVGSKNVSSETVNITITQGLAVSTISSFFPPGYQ

B1: M103205H795-MY310/M103202L889-SK1 (antibody, human IgG1, kappa)
heavy: QVTLKESGPVLVKPTETLTLTCTVSGIDLSHDDISWVRQAPGKGLEWVGIISYAGSTYYASWAKGRLTISKDTSKNQVVLTMTNMDPVDTATYYCARGVPAYSHGGDLWGQGTLVTVSSASTKGPSVFPLAPSSKSTSGGTAALGCLVKDYFPEPVTVSWNSGALTSGVHTFPAVLQSSGLYSLSSVVTVPSSSLGTQTYICNVNHKPSNTKVDKKVEPKSCDKTHTCPPCPAPELLTGPSVFLFPPKPKDTLMISRTPEVTCVVVDVSEEDPEVKFNWYVDGVEVHNAKTKPREEQYNSTYRVVSVLTVLHQDWLNGKEYKCKVSNTALPKPIEKTISKAKGQPREPQVYTLPPSREEMTKNQVSLTCLVKGFYPSDIAVEWESNGQPENNYKTTPPVLDSDGSFFLYSKLTVDKSRWQQGNVFSCSVMHEALHNHYTQKSLSLSP
light: DIVMTQSPATLSLSPGERATLSCTSSQSVYHANWLSWFQQKPGQPPKLLIYWASTLAYGVPSRFSGSGSGTDFTLTISSLQPEDAATYYCAGGYGGGRYAFGQGTKVEIKRTVAAPSVFIFPPSDEQLKSGTASVVCLLNNFYPREAKVQWKVDNALQSGNSQESVTEQDSKDSTYSLSSTLTLSKADYEKHKVYACEVTHQGLSSPVTKSFNRGEC
Regarding B1, in test [1], the “KD fold (SG1 = 1)” value stood at 0.2 fold. The dissociation constant Kd in test [2] was found to be 3 µM; in test [3], 7.2 µM; in test [4], 0.95 µM; in test [5] it was 1.8 µM; in [6], 0.4 µM; in test [7] it was 0.55 µM. Besides, the dissociation constant (Kd) came out at 2.9 µM in test [8] and 6.9 µM in test [9].

B2: M103205H795-MY311/M103202L889-SK1 (antibody, human IgG1, kappa)
heavy: QVTLKESGPVLVKPTETLTLTCTVSGIDLSHDDISWVRQAPGKGLEWVGIISYAGSTYYASWAKGRLTISKDTSKNQVVLTMTNMDPVDTATYYCARGVPAYSHGGDLWGQGTLVTVSSASTKGPSVFPLAPSSKSTSGGTAALGCLVKDYFPEPVTVSWNSGALTSGVHTFPAVLQSSGLYSLSSVVTVPSSSLGTQTYICNVNHKPSNTKVDKKVEPKSCDKTHTCPPCPAPELLTGPSVFLFPPKPKDTLMISRTPEVTCVVVDVSEEDPEVKFNWYVDGVEVHNAKTKPREELYNSTYRVVSVLTVLHQDWLNGKEYKCKVSNKALPKPIEKTISKAKGQPREPQVYTLPPSREEMTKNQVSLTCLVKGFYPSDIAVEWESNGQPENNYKTTPPVLDSDGSFFLYSKLTVDKSRWQQGNVFSCSVMHEALHNHYTQKSLSLSP
light: DIVMTQSPATLSLSPGERATLSCTSSQSVYHANWLSWFQQKPGQPPKLLIYWASTLAYGVPSRFSGSGSGTDFTLTISSLQPEDAATYYCAGGYGGGRYAFGQGTKVEIKRTVAAPSVFIFPPSDEQLKSGTASVVCLLNNFYPREAKVQWKVDNALQSGNSQESVTEQDSKDSTYSLSSTLTLSKADYEKHKVYACEVTHQGLSSPVTKSFNRGEC
In the case of B2, in test [1], the “KD fold (SG1 = 1)” value was 0.35 fold. The equilibrium dissociation constant (Kd) in test [2] was 2.3 µM; in test [3] it was 8.6 µM; in [4], 0.78 µM; in [5], 2.4 µM; in test [6] it was 0.2 µM; in [7], 0.45 µM. Besides, the figures for the equilibrium dissociation constant (Kd) in test [8] and in test [9] were 2.1 µM and 7.1 µM, respectively.

B3: M103205H795-MY312/M103202L889-SK1 (antibody, human IgG1, kappa)
heavy: QVTLKESGPVLVKPTETLTLTCTVSGIDLSHDDISWVRQAPGKGLEWVGIISYAGSTYYASWAKGRLTISKDTSKNQVVLTMTNMDPVDTATYYCARGVPAYSHGGDLWGQGTLVTVSSASTKGPSVFPLAPSSKSTSGGTAALGCLVKDYFPEPVTVSWNSGALTSGVHTFPAVLQSSGLYSLSSVVTVPSSSLGTQTYICNVNHKPSNTKVDKKVEPKSCDKTHTCPPCPAPELLTGPSVFLFPPKPKDTLMISRTPEVTCVVVDVSEEDPEVKFNWYVDGVEVHNAKTKPREEQYNSTYRVVSVLTVLHQDWLNGKEYKCKVSNTALPKPIEKTISKAKGQPREPQVYTLPPSREEMTKNQVSLTCLVKGFYPSDIAVEWESNGQPENNYKTTPMVLDSDGSFFLYSKLTVDKSRWQQGNVFSCSVMHEALHNHYTQKSLSLSP
light: DIVMTQSPATLSLSPGERATLSCTSSQSVYHANWLSWFQQKPGQPPKLLIYWASTLAYGVPSRFSGSGSGTDFTLTISSLQPEDAATYYCAGGYGGGRYAFGQGTKVEIKRTVAAPSVFIFPPSDEQLKSGTASVVCLLNNFYPREAKVQWKVDNALQSGNSQESVTEQDSKDSTYSLSSTLTLSKADYEKHKVYACEVTHQGLSSPVTKSFNRGEC
As for B3, the “KD fold (SG1 = 1)” value in test [1] came out at 0.55 fold. Also, the dissociation constant (Kd) in test [2] worked out at 1.4 µM; in [3] it was 3.7 µM; in test [4] it was 0.4 µM; in test [5] it was 0.65 µM; in [6] it was 0.11 µM; in test [7], 0.17 µM. Besides, the dissociation constant (Kd) in test [8] was 1.1 µM; in [9] it was 2.8 µM.

B4: M103205H795-MY318/M103202L889-SK1 (antibody, human IgG1, kappa)
heavy: QVTLKESGPVLVKPTETLTLTCTVSGIDLSHDDISWVRQAPGKGLEWVGIISYAGSTYYASWAKGRLTISKDTSKNQVVLTMTNMDPVDTATYYCARGVPAYSHGGDLWGQGTLVTVSSASTKGPSVFPLAPSSKSTSGGTAALGCLVKDYFPEPVTVSWNSGALTSGVHTFPAVLQSSGLYSLSSVVTVPSSSLGTQTYICNVNHKPSNTKVDKKVEPKSCDKTHTCPPCPAPELLLGPSVFLFPPKPKDTLMISRTPEVTCVVVDVSEEDPEVKFNWYVDGVEVHNAKTKPREEQYNSTYRVVSVLTVLHQDWLNGKEYKCKVSNTALPKPIEKTISKAKGQPREPQVYTLPPSREEMTKNQVSLTCLVKGFYPSDIAVEWESNGQPENNYKTTPMVLDSDGSFFLYSKLTVDKSRWQQGNVFSCSVMHEALHNHYTQKSLSLSP
light: DIVMTQSPATLSLSPGERATLSCTSSQSVYHANWLSWFQQKPGQPPKLLIYWASTLAYGVPSRFSGSGSGTDFTLTISSLQPEDAATYYCAGGYGGGRYAFGQGTKVEIKRTVAAPSVFIFPPSDEQLKSGTASVVCLLNNFYPREAKVQWKVDNALQSGNSQESVTEQDSKDSTYSLSSTLTLSKADYEKHKVYACEVTHQGLSSPVTKSFNRGEC
Regarding B4, in [1], the “KD fold (SG1 = 1)” value was 0.24 fold. Also, the Kd was 7.9 µM in test [2]; 32 µM in test [3]; 2.2 µM in test [4]; 1.5 µM in test [5]; 1.1 µM in test [6]; 1.3 µM in test [7]. Besides, the dissociation constant Kd stood at 4.8 µM in test [8] and 8.7 µM in test [9].

The values above are taken from patent publication US20200317768A1 (published 2020).
